Data on 1 substance can be found in US9029340.

This experiment concerns the target prostate-specific membrane antigen (PSMA) (human) (UniProt Q04609). Briefly: flow cytometry; J591 (1:5000) plus Alexa488 secondary on PC3-PIP cells, PSMA-negative PC3-Flu cells as reference. On the technique in general: In flow cytometry, cells or beads pass a laser one at a time.
UniProt Q04609, sequence (Q04609 whole entry): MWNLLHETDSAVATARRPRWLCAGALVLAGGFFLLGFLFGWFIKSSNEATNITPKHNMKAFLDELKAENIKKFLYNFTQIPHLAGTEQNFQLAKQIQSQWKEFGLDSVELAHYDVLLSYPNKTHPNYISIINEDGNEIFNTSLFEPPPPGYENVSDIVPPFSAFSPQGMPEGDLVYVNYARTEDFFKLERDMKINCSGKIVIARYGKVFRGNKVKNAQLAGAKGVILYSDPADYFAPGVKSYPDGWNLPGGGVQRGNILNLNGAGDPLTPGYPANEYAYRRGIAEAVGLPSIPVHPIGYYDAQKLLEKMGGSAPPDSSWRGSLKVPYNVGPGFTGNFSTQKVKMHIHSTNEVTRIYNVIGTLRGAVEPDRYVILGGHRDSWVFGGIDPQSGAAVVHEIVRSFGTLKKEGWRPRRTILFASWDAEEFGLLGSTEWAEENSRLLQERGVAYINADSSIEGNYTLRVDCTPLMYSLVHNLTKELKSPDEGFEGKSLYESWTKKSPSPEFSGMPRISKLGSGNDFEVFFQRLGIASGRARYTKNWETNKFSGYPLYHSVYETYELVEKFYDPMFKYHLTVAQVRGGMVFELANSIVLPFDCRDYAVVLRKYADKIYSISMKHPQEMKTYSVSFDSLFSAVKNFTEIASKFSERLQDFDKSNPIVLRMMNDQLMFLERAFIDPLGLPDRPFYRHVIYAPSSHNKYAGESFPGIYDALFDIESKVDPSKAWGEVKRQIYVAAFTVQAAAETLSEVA

With anti-PSMA (J591) antibody, the percent of cells stained positive was 48.2%.
